The values that follow come from patent US20180319878A1 (NANYANG TECHNOLOGICAL UNIVERSITY, published 2018).

The target in the test is T1, recombinant human cANGPTL4 (C terminal region of angiopoietin-like 4) (human, UniProt Q9BY76 186-406, limits assumed).
T1 construct: domain: c terminal region; Immobilized on the chip in SPR; added at 6 µg/ml to HMVECs in cell assays; also called rh-cANGPTL4; rhcANGPTL4
T1 sequence (looked up): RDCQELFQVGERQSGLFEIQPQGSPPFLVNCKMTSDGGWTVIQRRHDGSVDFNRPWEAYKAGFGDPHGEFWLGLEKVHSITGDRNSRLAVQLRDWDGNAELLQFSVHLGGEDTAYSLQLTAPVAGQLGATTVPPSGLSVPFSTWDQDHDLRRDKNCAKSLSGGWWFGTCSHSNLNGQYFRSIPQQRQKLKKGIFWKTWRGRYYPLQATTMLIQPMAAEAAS
Put plainly: SPR (BIAcore 2000), immobilized cANGPTL4, global fitting. The procedure: Six concentrations (0.16, 0.32, 0.63, 1.25, 2.50 and 5.0 μM) of recombinant integrin β1, first extracellular domain of VE-cadherin (ECD1), extracellular repeat 1 domain of VE-cadherin (EC1), occludin or JAM-A were used.
Global fitting of the SPR data was performed as previously described to determine the KD. Preinjection or preincubation with the indicated antibodies or preimmune IgG was performed to determine specific interactions. Each sensorgram was corrected by subtracting a sensorgram obtained from a reference flow cell with no immobilized protein. […] Values are mean±S.D. (n=3)
(In general: In SPR one partner is held on a chip, and binding of the other changes the refractive index at the surface.)

B1: claudin-5 (SPR analyte) (other, UniProt O00501 1-218, looked up)
chain: MGSAALEILGLVLCLVGWGGLILACGLPMWQVTAFLDHNIVTAQTTWKGLWMSCVVQSTGHMQCKVYDSVLALSTEVQAARALTVSAVLLAFVALFVTLAGAQCTTCVAPGPAKARVALTGGVLYLFCGLLALVPLCWFANIVVREFYDPSVPVSQKYELGAALYIGWAATALLMVGGCLLCCGAWVCTGRPDLSFPVKYSAPRRPTATGDYDKKNYV
The Kd is a measure of binding affinity in units of concentration. For B1, the Kd is 58.7 nM.
